{"source": "IntAct's records for PubMed 32296183", "key": {"crtp1_human CYSRT1": {"biological_target": "T1, crtp1_human CYSRT1 (UniProt A8MQ03)", "T1 sequence": "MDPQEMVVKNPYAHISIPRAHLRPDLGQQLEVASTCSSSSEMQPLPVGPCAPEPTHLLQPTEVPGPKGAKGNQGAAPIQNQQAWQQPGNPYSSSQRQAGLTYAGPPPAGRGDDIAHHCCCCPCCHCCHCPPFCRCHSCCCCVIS"}, "bik_human BIK": {"biological_target": "bik_human BIK (UniProt Q13323)"}, "gpx8_human GPX8": {"biological_target": "T2, gpx8_human GPX8 (UniProt Q8TED1)", "T2 sequence": "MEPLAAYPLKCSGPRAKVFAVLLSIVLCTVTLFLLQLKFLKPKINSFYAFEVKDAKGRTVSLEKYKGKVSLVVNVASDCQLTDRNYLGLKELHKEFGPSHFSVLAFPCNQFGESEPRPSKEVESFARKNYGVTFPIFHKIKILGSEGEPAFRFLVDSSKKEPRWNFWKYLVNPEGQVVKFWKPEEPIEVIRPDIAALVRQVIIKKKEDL"}, "gp152_human GPR152": {"biological_target": "gp152_human GPR152 (UniProt Q8TDT2)"}, "cxa8_human GJA8": {"biological_target": "cxa8_human GJA8 (UniProt P48165)"}, "pdz1i_human PDZK1IP1": {"biological_target": "T3, pdz1i_human PDZK1IP1 (UniProt Q13113)", "T3 sequence": "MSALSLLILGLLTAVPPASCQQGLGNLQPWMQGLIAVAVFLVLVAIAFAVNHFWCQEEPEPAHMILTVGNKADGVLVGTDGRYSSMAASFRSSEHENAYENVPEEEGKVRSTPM"}, "ergi3_human ERGIC3": {"biological_target": "ergi3_human ERGIC3 (UniProt Q9Y282)"}, "amgo1_human AMIGO1": {"biological_target": "T4, amgo1_human AMIGO1 (UniProt Q86WK6)", "T4 sequence": "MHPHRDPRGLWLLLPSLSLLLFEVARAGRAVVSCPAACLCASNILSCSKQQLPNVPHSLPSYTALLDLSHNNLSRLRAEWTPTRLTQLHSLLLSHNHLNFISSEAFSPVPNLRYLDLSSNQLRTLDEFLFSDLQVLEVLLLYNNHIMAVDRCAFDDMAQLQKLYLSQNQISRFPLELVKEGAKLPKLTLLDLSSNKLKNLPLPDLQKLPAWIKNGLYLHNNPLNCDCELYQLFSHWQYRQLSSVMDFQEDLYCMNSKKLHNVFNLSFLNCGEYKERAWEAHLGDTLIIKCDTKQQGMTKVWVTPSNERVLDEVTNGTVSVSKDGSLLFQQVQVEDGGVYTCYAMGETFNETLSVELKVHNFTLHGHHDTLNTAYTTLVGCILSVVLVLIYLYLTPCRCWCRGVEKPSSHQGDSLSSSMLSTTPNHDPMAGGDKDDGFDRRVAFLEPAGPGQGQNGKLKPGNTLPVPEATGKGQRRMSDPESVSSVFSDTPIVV"}, "lrc4c_human LRRC4C": {"biological_target": "T5, lrc4c_human LRRC4C (UniProt Q9HCJ2)", "T5 sequence": "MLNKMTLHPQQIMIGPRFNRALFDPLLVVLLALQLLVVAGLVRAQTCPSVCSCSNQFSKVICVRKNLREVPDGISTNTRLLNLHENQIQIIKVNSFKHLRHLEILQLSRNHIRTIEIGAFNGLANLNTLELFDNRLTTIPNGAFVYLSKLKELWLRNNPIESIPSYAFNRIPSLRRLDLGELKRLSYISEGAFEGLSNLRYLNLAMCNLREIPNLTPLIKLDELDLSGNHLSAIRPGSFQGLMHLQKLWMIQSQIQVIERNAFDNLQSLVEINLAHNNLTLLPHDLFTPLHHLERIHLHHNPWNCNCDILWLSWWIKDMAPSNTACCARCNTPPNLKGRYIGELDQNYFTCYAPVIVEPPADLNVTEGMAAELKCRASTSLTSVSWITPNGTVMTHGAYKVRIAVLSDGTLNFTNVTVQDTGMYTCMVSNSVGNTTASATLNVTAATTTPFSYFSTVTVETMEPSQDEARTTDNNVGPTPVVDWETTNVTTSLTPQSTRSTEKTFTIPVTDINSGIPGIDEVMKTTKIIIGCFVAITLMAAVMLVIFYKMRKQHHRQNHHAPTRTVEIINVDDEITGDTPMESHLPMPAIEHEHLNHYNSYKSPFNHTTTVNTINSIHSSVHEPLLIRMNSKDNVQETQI"}, "comt_human COMT": {"biological_target": "comt_human COMT (UniProt P21964)"}, "cld7_human CLDN7": {"biological_target": "T6, cld7_human CLDN7 (UniProt O95471)", "T6 sequence": "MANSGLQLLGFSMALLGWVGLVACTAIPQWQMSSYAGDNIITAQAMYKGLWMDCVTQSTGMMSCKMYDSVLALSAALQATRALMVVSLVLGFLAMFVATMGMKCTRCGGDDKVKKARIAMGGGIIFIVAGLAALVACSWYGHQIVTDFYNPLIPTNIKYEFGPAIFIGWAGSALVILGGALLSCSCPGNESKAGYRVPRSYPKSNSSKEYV"}, "cxa5_human GJA5": {"biological_target": "cxa5_human GJA5 (UniProt P36382)"}, "ar13b_human ARL13B": {"biological_target": "ar13b_human ARL13B (UniProt Q3SXY8)"}, "cisd2_human CISD2": {"biological_target": "T7, cisd2_human CISD2 (UniProt Q8N5K1)", "T7 sequence": "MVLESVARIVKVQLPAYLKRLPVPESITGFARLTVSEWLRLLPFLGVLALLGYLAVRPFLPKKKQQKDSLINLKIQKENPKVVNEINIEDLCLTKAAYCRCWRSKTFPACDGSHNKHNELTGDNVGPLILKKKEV"}, "tm52b_human TMEM52B": {"biological_target": "tm52b_human TMEM52B (UniProt Q4KMG9)"}, "cplx4_human CPLX4": {"biological_target": "T8, cplx4_human CPLX4 (UniProt Q7Z7G2)", "T8 sequence": "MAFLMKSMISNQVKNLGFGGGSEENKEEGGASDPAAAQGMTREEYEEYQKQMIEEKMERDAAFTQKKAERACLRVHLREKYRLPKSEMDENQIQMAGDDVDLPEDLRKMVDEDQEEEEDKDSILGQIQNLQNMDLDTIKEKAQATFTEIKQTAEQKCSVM"}, "ssmm1_human SSMEM1": {"biological_target": "T9, ssmm1_human SSMEM1 (UniProt Q8WWF3)", "T9 sequence": "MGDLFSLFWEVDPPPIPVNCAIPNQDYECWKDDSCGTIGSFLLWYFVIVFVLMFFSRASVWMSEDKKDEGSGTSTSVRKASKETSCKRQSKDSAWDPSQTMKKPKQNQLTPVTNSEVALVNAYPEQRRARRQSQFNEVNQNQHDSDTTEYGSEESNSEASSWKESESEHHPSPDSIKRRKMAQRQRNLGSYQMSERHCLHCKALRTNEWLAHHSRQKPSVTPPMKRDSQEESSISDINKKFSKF"}}}
{"substance": "Acyltransferase PGAP2 (Homo sapiens) (from UniProt Q9UHJ9-5) T160I", "values": [{"measurement": "effect of a mutation on the interaction", "setting": "crtp1_human CYSRT1", "result": "disrupting interaction strength"}, {"measurement": "effect of a mutation on the interaction", "setting": "bik_human BIK", "result": "with no effect"}, {"measurement": "effect of a mutation on the interaction", "setting": "gpx8_human GPX8", "result": "with no effect"}, {"measurement": "effect of a mutation on the interaction", "setting": "gp152_human GPR152", "result": "with no effect"}, {"measurement": "effect of a mutation on the interaction", "setting": "cxa8_human GJA8", "result": "with no effect"}, {"measurement": "effect of a mutation on the interaction", "setting": "pdz1i_human PDZK1IP1", "result": "with no effect"}, {"measurement": "effect of a mutation on the interaction", "setting": "ergi3_human ERGIC3", "result": "with no effect"}, {"measurement": "effect of a mutation on the interaction", "setting": "amgo1_human AMIGO1", "result": "disrupting interaction strength"}, {"measurement": "effect of a mutation on the interaction", "setting": "lrc4c_human LRRC4C", "result": "with no effect"}, {"measurement": "effect of a mutation on the interaction", "setting": "comt_human COMT", "result": "with no effect"}, {"measurement": "effect of a mutation on the interaction", "setting": "cld7_human CLDN7", "result": "disrupting interaction strength"}, {"measurement": "effect of a mutation on the interaction", "setting": "cxa5_human GJA5", "result": "with no effect"}, {"measurement": "effect of a mutation on the interaction", "setting": "ar13b_human ARL13B", "result": "with no effect"}, {"measurement": "effect of a mutation on the interaction", "setting": "cisd2_human CISD2", "result": "with no effect"}, {"measurement": "effect of a mutation on the interaction", "setting": "tm52b_human TMEM52B", "result": "disrupting interaction strength"}, {"measurement": "effect of a mutation on the interaction", "setting": "cplx4_human CPLX4", "result": "with no effect"}, {"measurement": "effect of a mutation on the interaction", "setting": "ssmm1_human SSMEM1", "result": "with no effect"}]}
